The subject of experiment [1] is HIV-1 LTR promoter transactivation by HIV-1 Tat. Nature of the experiment: Transactivation assay, HIV-1 LTR luciferase reporter with HIV-1 Tat. The class given is cell-based. Particulars: HEK293 cells co-transfected with pHIV1LTR-Luc, HIV-1 Tat and the human ORF; relative luciferase activity 24 h post-transfection; positive if >=2 or <=0.5 and p<0.05. An excerpt: The plasmids pHIV1LTR-Luc or pHTLV1LTR-Luc containing a luciferase reporter gene under the control of the HIV-1 or HTLV-1 LTR promoters and plasmids expressing either HIV-1 Tat or HTLV-1 Tax and each human ORF found to interact with viral proteins were transfected into 10^4 HEK293 cells using the calcium phosphate method. Twenty-four hours post-transfection, cells were washed three times with PBS, lysed and luciferase activities determined from two independent transfection experiments in triplicate. We computed a paired t-test to assess the difference of the means between samples with and without the human interactor. For a trial to be considered positive, the relative luciferase activities has to be >=2 or <=0.5, and the p-value of the t-test<0.05.
Many HIV/HTLV-human interactions in our data set (130/212) involved the retroviral transactivator proteins HTLV-1 Tax (57/212), HTLV-2 Tax2 (49/212), HIV-1 Tat (10/212) and HIV-2 Tat (14/212). Human proteins interacting with viral transactivators likely influence Tat or Tax transactivation. Expression vectors encoding human ORFs and HIV-1 Tat or HTLV-1 Tax proteins were tested in a transactivation reporter assay against reporter plasmids harboring HIV-1 or HTLV-1 viral promoter sequences cloned upstream of the luciferase reporter gene. In the controls Tat or Tax respectively activated HIV or HTLV LTR-directed gene expression. Co-transfection of interacting human ORFs identified 71 proteins (54% of the 131 human targets in our data set) that regulated HIV (26.7% of targets), HTLV (37.4% of targets) or both (9.9% of targets) LTR promoter activation by Tat or Tax (see Tables 7 and 8; Table 13 below containing quantitative data on the regulation of transactivation). Wherever not expressly specified, constructs used herein were generally made by sub-cloning entry clones from the ORFeome V3.1 into suitable destination vectors.
A general note: A reporter such as luciferase makes a cellular process visible.

The subject of experiment [2] is HTLV-1 LTR promoter transactivation by HTLV-1 Tax. Nature of the experiment: Transactivation assay, HTLV-1 LTR luciferase reporter with HTLV-1 Tax. Type of experiment: cell-based. Particulars: HEK293 cells co-transfected with pHTLV1LTR-Luc, HTLV-1 Tax and the human ORF; relative luciferase activity 24 h post-transfection; positive if >=2 or <=0.5 and p<0.05. An excerpt:
Twenty-four hours post-transfection, cells were washed three times with PBS, lysed and luciferase activities determined from two independent transfection experiments in triplicate. We computed a paired t-test to assess the difference of the means between samples with and without the human interactor. For a trial to be considered positive, the relative luciferase activities has to be >=2 or <=0.5, and the p-value of the t-test<0.05.
Expression vectors encoding human ORFs and HIV-1 Tat or HTLV-1 Tax proteins were tested in a transactivation reporter assay against reporter plasmids harboring HIV-1 or HTLV-1 viral promoter sequences cloned upstream of the luciferase reporter gene. […] Wherever not expressly specified, constructs used herein were generally made by sub-cloning entry clones from the ORFeome V3.1 into suitable destination vectors.

Experimental findings from patent publication US20120090043A1, “TARGETS FOR RETROVIRUS ASSOCIATED DISEASES” (priority 2009, published 2012) are described below.

B1: HOXD3: human host interactor protein, Gene ID 3232, expressed from transfected ORF vector (protein)
chain: MLFEQGQQALELPECTMQKAAYYENPGLFGGYGYSKTTDTYGYSTPHQPYPPPAAASSLDTDYPGSACSIQSSAPLRAPAHKGAELNGSCMRPGTGNSQGGGGGSQPPGLNSEQQPPQPPPPPPTLPPSSPTNPGGGVPAKKPKGGPNASSSSATISKQIFPWMKESRQNSKQKNSCATAGESCEDKSPPGPASKRVRTAYTSAQLVELEKEFHFNRYLCRPRRVEMANLLNLTERQIKIWFQNRRMKYKKDQKAKGILHSPASQSPERSPPLGGAAGHVAYSGQLPPVPGLAYDAPSPPAFAKSQPNMYGLAAYTAPLSSCLPQQKRYAAPEFEPHPMASNGGGFASANLQGSPVYVGGNFVESMAPASGPVFNLGHLSHPSSASVDYSCAAQIPGNHHHGPCDPHPTYTDLSAHHSSQGRLPEAPKLTHL
In experiment [1], B1 returned an HIV_LTR transactiv. of 7.30 fold change.

B2: RNPS1: human host interactor protein, Gene ID 10921, expressed from transfected ORF vector (protein)
chain: MDLSGVKKKSLLGVKENNKKSSTRAPSPTKRKDRSDEKSKDRSKDKGATKESSEKDRGRDKTRKRRSASSGSSSTRSRSSSTSSSGSSTSTGSSSGSSSSSASSRSGSSSTSRSSSSSSSSGSPSPSRRRHDNRRRSRSKSKPPKRDEKERKRRSPSPKPTKVHIGRLTRNVTKDHIMEIFSTYGKIKMIDMPVERMHPHLSKGYAYVEFENPDEAEKALKHMDGGQIDGQEITATAVLAPWPRPPPRRFSPPRRMLPPPPMWRRSPPRMRRRSRSPRRRSPVRRRSRSPGRRRHRSRSSSNSSR
In turn, B2 displayed an HTLV_LTR transactiv. in experiment [2] of 11.12 fold change.

B3: SPG21: human host interactor protein, Gene ID 51324, expressed from transfected ORF vector (protein)
chain: MGEIKVSPDYNWFRGTVPLKKIIVDDDDSKIWSLYDAGPRSIRCPLIFLPPVSGTADVFFRQILALTGWGYRVIALQYPVYWDHLEFCDGFRKLLDHLQLDKVHLFGASLGGFLAQKFAEYTHKSPRVHSLILCNSFSDTSIFNQTWTANSFWLMPAFMLKKIVLGNFSSGPVDPMMADAIDFMVDRLESLGQSELASRLTLNCQNSYVEPHKIRDIPVTIMDVFDQSALSTEAKEEMYKLYPNARRAHLKTGGNFPYLCRSAEVNLYVQIHLLQFHGTKYAAIDPSMVSAEELEVQKGSLGISQEEQ
As to B3, the HTLV_LTR transactiv. in experiment [2] is recorded as 0.21 fold change.

B4: DLAT: human host interactor protein, Gene ID 1737, expressed from transfected ORF vector (protein)
chain: MWRVCARRAQNVAPWAGLEARWTALQEVPGTPRVTSRSGPAPARRNSVTTGYGGVRALCGWTPSSGATPRNRLLLQLLGSPGRRYYSLPPHQKVPLPSLSPTMQAGTIARWEKKEGDKINEGDLIAEVETDKATVGFESLEECYMAKILVAEGTRDVPIGAIICITVGKPEDIEAFKNYTLDSSAAPTPQAAPAPTPAATASPPTPSAQAPGSSYPPHMQVLLPALSPTMTMGTVQRWEKKVGEKLSEGDLLAEIETDKATIGFEVQEEGYLAKILVPEGTRDVPLGTPLCIIVEKEADISAFADYRPTEVTDLKPQVPPPTPPPVAAVPPTPQPLAPTPSAPCPATPAGPKGRVFVSPLAKKLAVEKGIDLTQVKGTGPDGRITKKDIDSFVPSKVAPAPAAVVPPTGPGMAPVPTGVFTDIPISNIRRVIAQRLMQSKQTIPHYYLSIDVNMGEVLLVRKELNKILEGRSKISVNDFIIKASALACLKVPEANSSWMDTVIRQNHVVDVSVAVSTPAGLITPIVFNAHIKGVETIANDVVSLATKAREGKLQPHEFQGGTFTISNLGMFGIKNFSAIINPPQACILAIGASEDKLVPADNEKGFDVASMMSVTLSCDHRVVDGAVGAQWLAEFRKYLEKPITMLL
In turn, B4 displayed an HIV_LTR transactiv. in experiment [1] of 6.90 fold change.

B5: KRT15: human host interactor protein, Gene ID 3866, expressed from transfected ORF vector (protein)
chain: MTTTFLQTSSSTFGGGSTRGGSLLAGGGGFGGGSLSGGGGSRSISASSARFVSSGSGGGYGGGMRVCGFGGGAGSVFGGGFGGGVGGGFGGGFGGGDGGLLSGNEKITMQNLNDRLASYLDKVRALEEANADLEVKIHDWYQKQTPTSPECDYSQYFKTIEELRDKIMATTIDNSRVILEIDNARLAADDFRLKYENELALRQGVEADINGLRRVLDELTLARTDLEMQIEGLNEELAYLKKNHEEEMKEFSSQLAGQVNVEMDAAPGVDLTRVLAEMREQYEAMAEKNRRDVEAWFFSKTEELNKEVASNTEMIQTSKTEITDLRRTMQELEIELQSQLSMKAGLENSLAETECRYATQLQQIQGLIGGLEAQLSELRCEMEAQNQEYKMLLDIKTRLEQEIATYRSLLEGQDAKMAGIAIREASSGGGGSSSNFHINVEESVDGQVVSSHKREI
B5 returned an HIV_LTR transactiv. in experiment [1] of 0.33 fold change.

B6: TTC23: human host interactor protein, Gene ID 64927, expressed from transfected ORF vector (protein)
chain: MQESQETHISNHLDEVVAAVSITHRKKFQNKLLQTALFQPPREKLHLCEEKAKSYSNSHEYKQAVHELVRCVALTRICYGDSHWKLAEAHVNLAQGYLQLKGLSLQAKQHAEKARQILANSIVPPYSENTDVFKFSIELFHTMGRALLSLQKFKEAAENLTKAERLSKELLQCGRIIKEEWIEIEARIRLSFAQVYQGQKKSKEALSHYQAALEYVEISKGETSRECVPILRELAGVEQALGLHDVSINHFLQAHLIILSRSPSQVEAADSAHIVAHAAVASGRHEHHDVAEQYFQESMAHLKDSEGMGRTKFLSIQDEFCHFLQMTGQKERATSILRESLEAKVEAFGDFSPEVAETYRLLGGADLAQGNHSGARKKLKKCLQIQTLLYGPQDKRTLATQQAMGMLSTAPKVASKPRQASKAKVAFCTSIPQDTLLGKARPGTTAD
In turn, B6 gave an HTLV_LTR transactiv. in experiment [2] of 0.21 fold change.

B7: MINA: human host interactor protein, Gene ID 84864, expressed from transfected ORF vector (protein)
chain: MPKKAKPTGSGKEEGPAPCKQMKLEAAGGPSALNFDSPSSLFESLISPIKTETFFKEFWEQKPLLIQRDDPALATYYGSLFKLTDLKSLCSRGMYYGRDVNVCRCVNGKKKVLNKDGKAHFLQLRKDFDQKRATIQFHQPQRFKDELWRIQEKLECYFGSLVGSNVYITPAGSQGLPPHYDDVEVFILQLEGEKHWRLYHPTVPLAREYSVEAEERIGRPVHEFMLKPGDLLYFPRGTIHQADTPAGLAHSTHVTISTYQNNSWGDFLLDTISGLVFDTAKEDVELRTGIPRQLLLQVESTTVATRRLSGFLRTLADRLEGTKELLSSDMKKDFIMHRLPPYSAGDGAELSTPGGKLPRLDSVVRLQFKDHIVLTVLPDQDQSDEAQEKMVYIYHSLKNSRETHMMGNEEETEFHGLRFPLSHLDALKQIWNSPAISVKDLKLTTDEEKESLVLSLWTECLIQVV
As to B7, the HIV_LTR transactiv. in experiment [1] turned out to be 0.40 fold change.

B8: LOC541468: human host interactor protein, Gene ID 541468, expressed from transfected ORF vector (protein)
chain: MEGTVESQTPDLRDVEGKVGRKTPEGLLRGLRGECELGTSGALLLPGASSTGHDLGDKIMALKMELAYLRAIDVKILQQLVTLNEGIEAVRWLLEERGTLTSHCSSLTSSQYSLTGGSPGRSRRGSWDSLPDTSTTDRLDSVSIGSFLDTVAPSELDEQGPPGAPRSEMDWAKVIAGGERARTEVDVAATRLGSLRAVWKPPGERLQGGPPESPEDESAKLGFEAHWFWEQCQDDVTFL
In experiment [1], B8 showed an HIV_LTR transactiv. of 2.38 fold change.

B9: NIF3L1: human host interactor protein, Gene ID 60491, expressed from transfected ORF vector (protein)
chain: MLSSCVRPVPTTVRFVDSLICNSSRSFMDLKALLSSLNDFASLSFAESWDNVGLLVEPSPPHTVNTLFLTNDLTEEVMEEVLQKKADLILSYHPPIFRPMKRITWNTWKERLVIRALENRVGIYSPHTAYDAAPQGVNNWLAKGLGACTSRPIHPSKAPNYPTEGNHRVEFNVNYTQDLDKVMSAVKGIDGVSVTSFSARTGNEEQTRINLNCTQKALMQVVDFLSRNKQLYQKTEILSLEKPLLLHTGMGRLCTLDESVSLATMIDRIKRHLKLSHIRLALGVGRTLESQVKVVALCAGSGSSVLQGVEADLYLTGEMSHHDTLDAASQGINVILCEHSNTERGFLSDLRDMLDSHLENKINIILSETDRDPLQVV
B9 gave an HTLV_LTR transactiv. in experiment [2] of 0.39 fold change.
